Measured values reported in US20230382979A1 (ADAPTIVE BIOTECHNOLOGIES, published 2023).
Where a chain is given by its changes, count along the chain named.

B1: antibody 2564 (antibody, V domains shown)
VH: QVQLVQSGAEVKKPGSSVRVSCKASGGTFISYTFNWVRQAPGQGLEWMGRIIPIFGIVNYAQKFQGRVTIAADKSTSTAYMELSSLRSEDTAMYYCATATVDYDSGEEQSSFDPWGQGTLVTVSS
VL: EIVLTQSPGTLSLSPGERATLSCRASQSVSSSYLAWYQQKAGQTPRLLIYAASSRATGVPDRFSGSGSGTDFTLTISRLEAEDFAVYYCQQSWTFGQGTKVEIK
B2: antibody 3995 (antibody, V domains shown)
VH: EVQLVQSGAEVKKPGSSVKVSCKASGGTFSMHTIRWVRQAPGQGLEWMGRIIPMLGIVNYAQKFQGRVTISADKSTSTAYMELSSLTSEDTAMYYCAKGSHDVFDIWGQGTMVTVSS
VL: not shown
B3: antibody 2794 (antibody, V domains shown)
VH: QVQLVQSGAEVKKPGSSLKVSCKASGGTFNNFAISWVRQAPGQGPEWMGRINPILSAAKYAQKFQGRLTITADKSTTTAYMELSSLRSEDTAVYYCAPTGTGESWWFDPWGQGTLVTVSS
VL: QSVLTQPPSASGTPGQRVTISCSGSSSNIGTNYVYWYQQLPGTAPKVLIYGNNQRPSGVPDRFSGSKSGSSASLAISGLRSEDEADYYCAAWDDSLSGPVFGGGTKLTVL
B4: antibody 3091 (antibody, V domains shown)
VH: QMQLVQSGPEVKKPGTSVKVSCKASGFTFSSSAVQWVRQARGQGLEWIGWIVVGSGNANYAQKLQERVSITRDMSTSTAYMELSSLRPEDTAVYYCAAPHCSRTICHDGFDMWGQGTMVTVSS
VL: EIVLTQSPGTLSLSPGERATLSCRASQSVRSSYLAWYQQKPGQAPRLLMFVASSRATGIPDRFSGSGSGTDFTLTISRLEPEDFAVYYCQQYDTSPWTFGQGTKVEIK
B5: antibody 2050 (antibody, V domains shown)
VH: QVQLVQSGAEVKKPGASVKVPCKVSGYTFTDHFIHWVRQAPGQGLEWMGWISPNSGGRNYTQKFQGRVTLTRDTAITTVHMDLSSLTPDDTAVYYCARDVRWAQLQGGFDLWGQGTMVTVSS
VL: QSALTQPASVSGSPGQSITISCTGTSSDVGSYNLVSWYQQHPGKAPKLMIYEVSKRPSGVSNRFSGSKSGNTASLTISGLQADDEADYYCCSYAGDNNFLFGGGTSLTVL
B6: antibody 1888 (antibody, V domains shown)
VH: EVQLVESGGGLVKPGGSLRLSCAASGFTFSSYSMNWVRQAPGKGLEWVSYISSSSSYKYYADSVKGRFSVSRDNAKNSLYLQLNGLRVEDTAVYYCARDGYCPKGVCTYYGMDVWGQGTTVTVSA
VL: EIVMTQSPATLSVSPGERATLSCRASQSVRSRLAWFQQKPGQPPRLLIYDASIRATGIPDRFSGSGSGTEFTLIISGLQSEDFAVYYCQQYDNWPPAYTFGQGTKLEIK
B7: antibody 941 (antibody, V domains shown)
VH: QVQLVQSGAEVKKPGSSVKVSCKASGGTFSNSAINWVRQAPGQGLEWMGGIIPLFGAADYAQKFQARVTITADKSTTTSYMELSSLRSEDTAVYYCARDTLEHDDVWGNFRLSLPLSFWGQGTLVTVSS
VL: not shown
B8: antibody 4042 (antibody, V domains shown)
VH: QITLKESGPTLVKPTQTLTLTCTFSGFSLSSGGVGVGWIRQPPGKALEWLALIYWDDDKRYRPSLKSRLTITRDTSTNQVVLTMTNMDPVDTATYFCARHQIATVFDHWGQGTLVTVSS
VL: QSALTQPASVSGSPGQSITISCTGTSSDVGGYNYVSWYQQHPGKAPKLMIYEVSNRPSGVSSRFSGSKSGNTASLTISGLQAEDEADYYCSSYTRSSPLVAFGGGTKVTVL
B9: antibody 2075 (antibody, V domains shown)
VH: QVQLVQSGAEVKKPGSSVKVSCTASGGTFSIYAFSWVRQAPGQGLEWMGGIIPISGTAGYAQKFQGRVTITADESTSTAYMELSSLRSEDTAIYYCARKYRYCSGSRCYTYFDYWGQGTLVTVSS
VL: DIQMTQSPSSLSASVGDRVTITCRASQSISSFLNWYQQKPGKAPKLLIYAASSLQSGVPSRFSGSGSGTDFTLTISSLQPEDSATYYCQQSYSTITFGQGTRLEIK
B10: antibody 1963 (antibody, V domains shown)
VH: QVQLVQSGAEVKKPGASVKVSCKASGYTFTSNYIHWLRQAPGQGLEWMGIIKPSGTSTISAQKFRGRVAMTRDTSTSTVYMELSSLRFEDTAIYYCARDAKRALETWGQGTMVTVSS
VL: QSVLTQPPSVSAAPGQKVTISCSGSSSNIGNNYVSWYQQLPGTAPKLLIYDNNKRPSGIPDRFSGSRSGTSATLGITGLQTGDEADYYCGTWDSSLSAWVFGGGTKLTVL
B11: antibody 1823 (antibody, V domains shown)
VH: B6 VH with A23V, T28S, S30G, S31L, S33T, S55T, F68V, K104N, V106I
VL: EIVMTQSPATLSVSPGERATLSCRASQSVSSNLAWYQQKPGQAPRLLIYGASTRATGIPARFSGSGSGTEFTLTITGLQSEDFAVYYCQQYDKWPPAYSFGQGTKVEIK
B12: antibody 1867 (antibody, V domains shown)
VH: B6 VH with T28S, S31T, S33T, K58R, K65R, L83M, K104N, A125S
VL: not shown
B13: antibody 1969 (antibody, V domains shown)
VH: QVQLVQSGAEVKKPGASVKVSCKASGYSFTDYYIHWVRQAPGQGLEWMGIIKPSAGATVYAQKFRGRVSMTSDTSTGTVYMELSGLKSEDTAVYYCARDYNRSFDFWGQGTLVTVSS
VL: QSVLTQPPSVSAAPGQTVTISCAGSTSNIGKNYVSWYQHLPGTAPKLLIYDNIKRPSGIPDRFSGSTSGTSATLGITELQTGDEADYYCGTWDSSLSAYVFGTGTKVTVL
B14: antibody 1856 (antibody, V domains shown)
VH: B6 VH with Q3R, T28S, S31L, S33T, K58R, S78T, Q82E, L83M, V88A, K104R
VL: EIVMTQSPATLSVSPGERATLSCRASQTIGIRLAWYQQKPGQAPRLLIYDATIRATGIPARFSGSGSGTDFTLTISGLQSEDFAVYYCQRYNNWPPVYTFGQGTKLEMK
B15: antibody 2025 (antibody, V domains shown)
VH: QVQLVQSGAEVKKPGASVKVSCKVSGYTLIELSMHWVRQAPGKGLEWMGGFDPEDVETIYAQKFQGRVTMTEDTSTDTAYMELSSLRSEDTAVYYCATAYAVQWRGMIGYWGQGTLVTVSS
VL: QSALTQPASVSGSPGQSITISCTGTSSDVGSYNLVSWYQQHPGKAPKLMIYEVSKRPSGVSNRFSGSKSGNTASLTISGLQAEDEADYYCSSYAGSSTFSYVFGTGTKVTVL
B16: antibody 937 (antibody, V domains shown)
VH: EVQLVESGGGLVQPGRSLRLSCAASGFTFDDYAMHWVRQAPGKGLEWVSGISWNSGSIGYADSVKGRFTISRDNAKNSLYLQMNSLKPEDTALYYCAKSTTSCYNGSQCPTKRPKPLESWGQGTLVIVSA
VL: DIQMTQSPSTLSAFVGDRVTITCRASQSINNWLAWYQQKPGEVPKLLIYKASSLENGVPSRFSGSGFGTEFTLTISSLQPDDFAIYYCQQYYSHSHTFGQGTKLEIK

What follows are binders tested against SARS-CoV-2 spike protein, WA1/2020, borne on lentiviral pseudovirus (SARS-CoV-2, WA01/2020 strain, UniProt P0DTC2 14-1273) (assay: cell-based or functional assay).
For B1, the “Pseudo Neut, WA1/2020 IC50 (pM)” value was 160 pM.
For B2, the “Pseudo Neut, WA1/2020 IC50 (pM)” value was 3120 pM.
In the case of B3, the “Pseudo Neut, WA1/2020 IC50 (pM)” value is reported as 232 pM.
With B4 the “Pseudo Neut, WA1/2020 IC50 (pM)” value was 59 pM.
For B5, the “Pseudo Neut, WA1/2020 IC50 (pM)” value was 427 pM.
For B6, the “Pseudo Neut, WA1/2020 IC50 (pM)” value was > 111 pM.
With B7 the “Pseudo Neut, WA1/2020 IC50 (pM)” value was 610 pM.
For B8, the “Pseudo Neut, WA1/2020 IC50 (pM)” value was 209 pM.
With B9 the “Pseudo Neut, WA1/2020 IC50 (pM)” value was 783 pM.

What follows are binders tested against SARS-CoV (2003) spike protein borne on lentiviral pseudovirus (SARS-CoV (2003), UniProt P59594 14-1255) (assay: cell-based or functional assay).
For B10, the “Pseudo Neut, SARS-CoV 2003 IC50” value was 69 nM.
For B11, the “Pseudo Neut, SARS-CoV 2003 IC50” value was 210 nM.
B12 was tested, and the “Pseudo Neut, SARS-CoV 2003 IC50” value was 135 nM.
In the case of B6, the “Pseudo Neut, SARS-CoV 2003 IC50” value is reported as > 111 nM.
For B13, the “Pseudo Neut, SARS-CoV 2003 IC50” value was 97 nM.
For B14, the “Pseudo Neut, SARS-CoV 2003 IC50” value was > 111 nM.

What follows are binders tested against T1, S2 subunit of the SARS-CoV-2 spike protein, WA01/2020 strain (SARS-CoV-2, WA01/2020 strain, UniProt P0DTC2 686-1213) (assay: ELISA on S2 (S2 Binding EC50)).
For B11, the EC50 was 0.614 nM.

Each binder was assayed against T1, S2 subunit of the SARS-CoV-2 spike … (assay: dose-response ELISA; antigen taken from the column 'Structural data').
With B10 the EC50 was 0.041 nM.
B11 showed an EC50 of 0.614 nM.
With B12 the EC50 was 1.09 nM.
In the case of B13, the EC50 is reported as 0.035 nM.

What follows are binders tested against T2, SARS-CoV-2 nucleocapsid (N) protein (SARS-CoV-2, UniProt P0DTC9 1-419) (assay: ELISA, antibody at 0.1 ug/mL).
B1: no binding (tested: 0.1 ug/mL).
B2: no binding (tested: 0.1 ug/mL).
B3: no binding (tested: 0.1 ug/mL).
B4: no binding (tested: 0.1 ug/mL).
B5: no binding (tested: 0.1 ug/mL).
B7: no binding (tested: 0.1 ug/mL).
B8: no binding (tested: 0.1 ug/mL).
B9: no binding (tested: 0.1 ug/mL).

The binders below were run against T1, S2 subunit of the SARS-CoV-2 spike … (assay: ELISA, antibody at 0.1 ug/mL).
B1: no binding (tested: 0.1 ug/mL).
B2: no binding (tested: 0.1 ug/mL).
B3: no binding (tested: 0.1 ug/mL).
B4: no binding (tested: 0.1 ug/mL).
B5: no binding (tested: 0.1 ug/mL).
B7: no binding (tested: 0.1 ug/mL).
B8: no binding (tested: 0.1 ug/mL).
B9: no binding (tested: 0.1 ug/mL).

The binders below were run against S1 subunit of the SARS-CoV-2 spike protein, WA01/2020 strain (SARS-CoV-2, WA01/2020 strain, UniProt P0DTC2 16-685) (assay: ELISA screening, antibody concentration not given).
B10: no binding (tested: not printed).
B12: no binding (tested: not printed).
B6: no binding (tested: not printed).
B13: no binding (tested: not printed).
B14: no binding (tested: not printed).

The binders below were run against T2, SARS-CoV-2 nucleocapsid (N) protein (assay: ELISA screening, antibody concentration not given).
B10: no binding (tested: not printed).
B12: no binding (tested: not printed).
B6: no binding (tested: not printed).
B13: no binding (tested: not printed).
B14: no binding (tested: not printed).

Biological target: T2, SARS-CoV-2 nucleocapsid (N) protein
Test: ELISA, antibody at 0.1 ug/mL
Remark: another data set of the same source
B15: no binding (tested: 0.1 ug/mL).
B16: no binding (tested: 0.1 ug/mL).

Biological target: T1, S2 subunit of the SARS-CoV-2 spike …
Test: ELISA, antibody at 0.1 ug/mL
Remark: another data set of the same source
B15: no binding (tested: 0.1 ug/mL).
B16: no binding (tested: 0.1 ug/mL).
